Source: publication PMC5397419

Biological target: T1, DnaA wild-type (Escherichia coli) (UniProt P03004)
T1 sequence: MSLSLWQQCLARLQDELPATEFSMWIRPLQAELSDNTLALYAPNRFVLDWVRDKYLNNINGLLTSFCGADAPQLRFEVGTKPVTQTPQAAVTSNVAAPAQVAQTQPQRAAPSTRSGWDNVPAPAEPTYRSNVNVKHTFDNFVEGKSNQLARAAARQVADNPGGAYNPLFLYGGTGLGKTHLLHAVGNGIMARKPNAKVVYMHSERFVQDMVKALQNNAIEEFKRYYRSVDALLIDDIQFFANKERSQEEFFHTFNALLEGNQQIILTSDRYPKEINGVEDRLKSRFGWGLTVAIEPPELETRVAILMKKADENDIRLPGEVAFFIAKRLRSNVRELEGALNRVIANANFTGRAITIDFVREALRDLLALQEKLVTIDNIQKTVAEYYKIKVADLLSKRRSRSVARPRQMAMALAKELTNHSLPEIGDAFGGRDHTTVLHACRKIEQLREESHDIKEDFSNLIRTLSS
Assay: EMSA
Settings: EMSA oriC/PdnaA: 20 mM HEPES-KOH pH 8.0, 5 mM Mg acetate, 1 mM EDTA, 4 mM DTT, 0.2% Triton X-100, 5% glycerol, 0.5 mg/ml BSA, 2 mM ATP, 20 C; DARS1: 20 mM …

With “GGGGATAGGGGCTGGAGACAGTTATCCACTATTCCTGTGGATAACCATGTGTATTAGAGTTAGAAAACACGAGGCAAGCGAGAGAATACGCGGCTTGCACG (double strand) [DARS1]” the binding was “binds”.
